Measurements taken from publication PMC2151178.

Molecular target: DdUnc104 (Dictyostelium Unc104), 245-kD kinesin (Dictyostelium discoideum (endogenous in wild-type cells)) (UniProt Q9NGQ2)
Assay: SEC + other: sucrose density gradient velocity sedimentation

Substance: DdUnc104 (Dictyostelium Unc104), 245-kD kinesin, Q9NGQ2 1-2205
- stoichiometry N: 2
